According to paper PMC12418378, “Intrinsically disordered region of Clr4/Suv39 regulates its enzymatic activity and ensures heterochromatin spreading” (Nucleic Acids Research, 2025):
Each block holds one binder with its values, some of them ahead of it.

Columns and labels:
Assay in all cases: pull-down; GST-fused Clr4 (0.2 nmol) on Glutathione Magnetic Agarose Beads, 0.2 nmol MBP-fused Clr4 in 200 μl of 10 mM Tris-HCl pH 7.5, 150 mM NaCl, 0.1 mM EDTA, 0.1% Triton X-100, 4°C, 2 h; SDS-PAGE and CBB staining; also at 0 mM NaCl and with pericentromeric RNA added
Conditions in all cases: both partners purified
[1] = target: T1, MBP-fused catalytic domain of Clr4 (MBP-Clr4-C, amino acids 192-490) (S. pombe, UniProt O60016 192-490)
T1 construct: Clr4, S. pombe, C-terminal catalytic domain, amino acids 192-490; cloned into pMALc2; source: E. coli BL21 (DE3), purified (Amylose Resin, dialysed)

MBP-Clr4-C 472–475E = target: T2, MBP-Clr4-C 472–475E (S. pombe, UniProt O60016 192-490, 472–475E)
T2 construct: source: E. coli BL21 (DE3), purified (Amylose Resin, dialysed)

MBP-Clr4-C 472–475A = target: T3, MBP-Clr4-C 472–475A (S. pombe, UniProt O60016 192-490, 472–475A)
T3 construct: source: E. coli BL21 (DE3), purified (Amylose Resin, dialysed)
T3 sequence (O60016 other isoform, or with tags, fused parts or gaps 472–475A | 472–475A): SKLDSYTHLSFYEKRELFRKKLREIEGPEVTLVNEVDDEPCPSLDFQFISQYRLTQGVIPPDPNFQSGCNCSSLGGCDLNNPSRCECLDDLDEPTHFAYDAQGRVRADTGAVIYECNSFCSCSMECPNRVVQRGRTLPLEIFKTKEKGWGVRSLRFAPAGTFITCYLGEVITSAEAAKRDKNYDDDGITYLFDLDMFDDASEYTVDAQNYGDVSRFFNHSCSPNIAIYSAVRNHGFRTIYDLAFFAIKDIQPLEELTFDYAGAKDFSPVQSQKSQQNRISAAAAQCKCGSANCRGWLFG

T1 sequence (O60016 192-490): as the sequence (O60016 other isoform, or with tags, fused parts or gaps 472–475A | 472–475A) above, with A281K, A282L, A283R, A284R counted along it
T2 sequence (O60016 other isoform, or with tags, fused parts or gaps 472–475E | 472–475E): as the sequence (O60016 other isoform, or with tags, fused parts or gaps 472–475A | 472–475A) above, with A281E, A282E, A283E, A284E counted along it

- binding result [1]: binds
B1: GST-Clr4-N3 (domain or fragment, S. pombe, UniProt O60016 1-126, looked up)
chain: MSPKQEEYEVERIVDEKLDRNGAVKLYRIRWLNYSSRSDTWEPPENLSGCSAVLAEWKRRKRRLKGSNSDSDSPHHASNPHPNSRQKHQHQTSKSVPRSQRFSRELNVKKENKKVFSSQTTKRQSR
notes: Clr4, S. pombe, residues 1-126; source: E. coli BL21 (DE3), purified (Glutathione Sepharose 4B, anion exchange SOURCE 15Q)

- binding result (MBP-Clr4-C 472–475E): binds
- binding result (MBP-Clr4-C 472–475A): binds
- binding result [1]: binds
B2: GST-fused Clr4 N-terminus (GST-Clr4-N, amino acids 1-191) (domain or fragment, S. pombe, UniProt O60016 1-191, looked up)
chain: MSPKQEEYEVERIVDEKLDRNGAVKLYRIRWLNYSSRSDTWEPPENLSGCSAVLAEWKRRKRRLKGSNSDSDSPHHASNPHPNSRQKHQHQTSKSVPRSQRFSRELNVKKENKKVFSSQTTKRQSRKQSTALTTNDTSIILDDSLHTNSKKLGKTRNEVKEESQKRELVSNSIKEATSPKTSSILTKPRNP
notes: Clr4, S. pombe, N-terminus comprising the CD and IDR, amino acids 1-191; cloned into pGEX6P-3; also called wild-type GST-Clr4-N; GST-Clr4-N2 (label worked out); source: E. coli BL21 (DE3), purified (Glutathione Sepharose 4B, anion exchange SOURCE 15Q)
